Literature values, collected in publication PMC11816674.

Key:
[1] = target: IP3R N-terminal region (UniProt Q14643)
[2] = target: Cav1.4 1579-1605 (Homo sapiens) (UniProt O60840)
Chain of UniProt O60840 (O60840 1579-1605): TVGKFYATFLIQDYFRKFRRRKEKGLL

Chain of UniProt Q14643 (Q14643 1-604): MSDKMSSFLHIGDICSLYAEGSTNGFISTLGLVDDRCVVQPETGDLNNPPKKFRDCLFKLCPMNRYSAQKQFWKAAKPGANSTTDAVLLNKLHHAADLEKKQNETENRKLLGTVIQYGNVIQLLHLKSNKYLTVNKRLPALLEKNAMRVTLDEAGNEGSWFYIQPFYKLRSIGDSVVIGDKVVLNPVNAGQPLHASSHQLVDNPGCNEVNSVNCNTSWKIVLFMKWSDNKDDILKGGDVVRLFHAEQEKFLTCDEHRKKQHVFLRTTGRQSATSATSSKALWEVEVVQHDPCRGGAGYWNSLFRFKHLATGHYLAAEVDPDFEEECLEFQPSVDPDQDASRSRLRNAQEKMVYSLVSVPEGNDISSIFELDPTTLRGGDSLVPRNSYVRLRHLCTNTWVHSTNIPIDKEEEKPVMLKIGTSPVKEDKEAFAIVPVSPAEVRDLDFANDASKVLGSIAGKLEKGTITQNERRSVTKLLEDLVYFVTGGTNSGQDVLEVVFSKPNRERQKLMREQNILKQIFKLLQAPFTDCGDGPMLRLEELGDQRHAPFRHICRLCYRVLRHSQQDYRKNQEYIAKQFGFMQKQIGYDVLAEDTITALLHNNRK

Row | Kd [1] | Kd [2] | Substance
1 | 3 µM | – | CaBP1 (from UniProt Q9NZU7)
2 | – | 0.8 µM | CaBP4 (from UniProt P57796)
